Data published in PMC6347577 (Journal of the American Chemical Society, 2018).

Target: the molecule itself
Assay: native MS

B1: hepatitis B virus (HBV) capsid protein Cp149 (truncated form containing only the assembly domain), dimer (domain or fragment)
chain: MDIDPYKEFGATVELLSFLPSDFFPSVRDLLDTAAALYRDALESPEHCSPHHTALRQAILCWGDLMTLATWVGTNLEDPASRDLVVSYVNTNVGLKFRQLLWFHISCLTFGRETVLEYLVSFGVWIRTPPAYRPPNAPILSTLPETTVV
  stoichiometry N: ~90 dimers
